Laboratory results reported in the supplement of paper PMC9112550, “Optimization of the antimicrobial peptide Bac7 by deep mutational scanning” (BMC Biology, 2022).

Tested on: Escherichia coli TOP10
Experiment: shrunken log2 fold change of peptide-encoding DNA abundance (4.5 h post-induction vs induction); higher = less antimicrobial activity (less host growth inhibition)
Conditions: time post-induction: 4.5 h; library: site-saturation at positions 5, 18, 19, 20
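Note: peptides expressed intracellularly from a pBAD plasmid library in pooled LB shake-flask culture, induced with 0.3% L-arabinose, DNA abundance read by NGS, three biological replicates, DESeq2 with apeglm shrinkage.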

| Sequence | shrunken log2 fold change |
| --- | --- |
| RRIRQRPPRLPRPRPRPVCFPRP | -0.139 |
| RRIRHRPPRLPRPRPRPTENPRP | -0.418 |
| RRIRWRPPRLPRPRPRPMYIPRP | -0.144 |
| RRIRDRPPRLPRPRPRPKVEPRP | 0.109 |
| RRIRTRPPRLPRPRPRPRQSPRP | 0.159 |
| RRIRARPPRLPRPRPRPMRRPRP | 0.2 |
| RRIRNRPPRLPRPRPRPLMEPRP | -0.0667 |
| RRIRQRPPRLPRPRPRPDENPRP | 0.106 |
| RRIRERPPRLPRPRPRPTTPPRP | -0.0926 |
| RRIRTRPPRLPRPRPRPMRLPRP | -0.0194 |
| RRIRVRPPRLPRPRPRPQPAPRP | 0.0494 |
| RRIRNRPPRLPRPRPRPELSPRP | 0.0211 |
| RRIRIRPPRLPRPRPRPHMPPRP | -1.11 |
| RRIRVRPPRLPRPRPRPMLIPRP | -0.0178 |
| RRIRERPPRLPRPRPRPPEDPRP | 2.12 |
| RRIRMRPPRLPRPRPRPGIWPRP | 0.379 |
| RRIRKRPPRLPRPRPRPDTEPRP | 1.13 |
| RRIRCRPPRLPRPRPRPLRTPRP | 1.01 |
| RRIRTRPPRLPRPRPRPETCPRP | -0.0408 |
| RRIRIRPPRLPRPRPRPEPEPRP | 0.421 |
| RRIRSRPPRLPRPRPRPKYVPRP | -0.527 |
| RRIRDRPPRLPRPRPRPTPCPRP | 0.25 |
| RRIRQRPPRLPRPRPRPGCIPRP | -0.306 |
| RRIRMRPPRLPRPRPRPLFVPRP | 0.286 |
| RRIRQRPPRLPRPRPRPEHEPRP | 0.0155 |

| Sequence | shrunken log2 fold change |
| --- | --- |
| RRIRYRPPRLPRPRPRPTFLPRP | -0.495 |
| RRIRYRPPRLPRPRPRPIHTPRP | -0.379 |
| RRIRWRPPRLPRPRPRPVITPRP | 0.362 |
| RRIRLRPPRLPRPRPRPQSDPRP | -0.205 |
| RRIRRRPPRLPRPRPRPLMCPRP | -0.13 |
| RRIRIRPPRLPRPRPRPQKVPRP | -0.102 |
| RRIRMRPPRLPRPRPRPYICPRP | -0.201 |
| RRIRNRPPRLPRPRPRPSMGPRP | -0.0455 |
| RRIRPRPPRLPRPRPRPAVTPRP | 0.0942 |
| RRIRMRPPRLPRPRPRPYVTPRP | -0.298 |
| RRIRERPPRLPRPRPRPGVHPRP | -0.139 |
| RRIRARPPRLPRPRPRPPEVPRP | 1.17 |
| RRIRARPPRLPRPRPRPPRIPRP | 0.827 |
| RRIRTRPPRLPRPRPRPYEHPRP | -0.0707 |
| RRIRHRPPRLPRPRPRPNRCPRP | -0.259 |
| RRIRYRPPRLPRPRPRPYSIPRP | -0.264 |
| RRIRHRPPRLPRPRPRPQDIPRP | -0.343 |
| RRIRKRPPRLPRPRPRPSHMPRP | -0.0291 |
| RRIRQRPPRLPRPRPRPQIMPRP | -0.528 |
| RRIRARPPRLPRPRPRPIHAPRP | 0.0915 |
| RRIRMRPPRLPRPRPRPSRDPRP | 0.257 |
| RRIRIRPPRLPRPRPRPECVPRP | 0.0147 |
| RRIRLRPPRLPRPRPRPYFAPRP | -0.233 |
| RRIRDRPPRLPRPRPRPRSMPRP | 0.211 |
| RRIRFRPPRLPRPRPRPLPTPRP | 0.336 |

| Sequence | shrunken log2 fold change |
| --- | --- |
| RRIRNRPPRLPRPRPRPQAFPRP | -0.00429 |
| RRIRIRPPRLPRPRPRPWYGPRP | -1.24 |
| RRIRYRPPRLPRPRPRPCYLPRP | -0.0778 |
| RRIRERPPRLPRPRPRPPIWPRP | -0.0729 |
| RRIRSRPPRLPRPRPRPQKGPRP | -0.0456 |
| RRIRQRPPRLPRPRPRPYHWPRP | -0.0766 |
| RRIRNRPPRLPRPRPRPIKMPRP | -0.404 |
| RRIRCRPPRLPRPRPRPTIQPRP | -0.508 |
| RRIRDRPPRLPRPRPRPGHQPRP | 0.137 |
| RRIRCRPPRLPRPRPRPHNRPRP | -0.512 |
| RRIRYRPPRLPRPRPRPIYGPRP | -0.428 |
| RRIRLRPPRLPRPRPRPFKPPRP | 0.2 |
| RRIRERPPRLPRPRPRPPYPPRP | -0.32 |
| RRIRYRPPRLPRPRPRPETAPRP | 0.00332 |
| RRIRRRPPRLPRPRPRPMGYPRP | 0.0381 |
| RRIRARPPRLPRPRPRPWMMPRP | -0.248 |
| RRIRARPPRLPRPRPRPGDWPRP | 0.8 |
| RRIRGRPPRLPRPRPRPREMPRP | 1.2 |
| RRIRNRPPRLPRPRPRPESHPRP | -0.0363 |
| RRIRDRPPRLPRPRPRPQYNPRP | -0.446 |
| RRIRRRPPRLPRPRPRPYKKPRP | 0.142 |
| RRIRDRPPRLPRPRPRPVSQPRP | -0.0185 |
| RRIRWRPPRLPRPRPRPFLQPRP | -0.499 |
| RRIRPRPPRLPRPRPRPTVFPRP | 0.0272 |
| RRIRMRPPRLPRPRPRPGETPRP | 0.0143 |

| Sequence | shrunken log2 fold change |
| --- | --- |
| RRIRHRPPRLPRPRPRPNDRPRP | -0.104 |
| RRIRLRPPRLPRPRPRPRYKPRP | -0.225 |
| RRIRKRPPRLPRPRPRPRVEPRP | 0.144 |
| RRIRNRPPRLPRPRPRPYMEPRP | -0.0924 |
| RRIRFRPPRLPRPRPRPMPWPRP | 0.157 |
| RRIRVRPPRLPRPRPRPEQYPRP | -0.394 |
| RRIRNRPPRLPRPRPRPHGRPRP | 0.00746 |
| RRIRARPPRLPRPRPRPNVNPRP | -0.0484 |
| RRIRIRPPRLPRPRPRPKPVPRP | 0.101 |
| RRIRSRPPRLPRPRPRPAMNPRP | -0.66 |
| RRIRCRPPRLPRPRPRPTSEPRP | 0.108 |
| RRIRERPPRLPRPRPRPQEFPRP | -0.0119 |
| RRIRGRPPRLPRPRPRPEQMPRP | 0.152 |
| RRIRNRPPRLPRPRPRPNPLPRP | 0.0887 |
| RRIRMRPPRLPRPRPRPRRVPRP | 1.3 |
| RRIRVRPPRLPRPRPRPQFGPRP | -0.018 |
| RRIRPRPPRLPRPRPRPQFVPRP | -0.528 |
| RRIRPRPPRLPRPRPRPLEAPRP | 0.249 |
| RRIRRRPPRLPRPRPRPMQEPRP | -0.206 |
| RRIRLRPPRLPRPRPRPTHDPRP | 0.324 |
| RRIRVRPPRLPRPRPRPIYYPRP | -0.455 |
| RRIRWRPPRLPRPRPRPSSNPRP | -0.0759 |
| RRIRRRPPRLPRPRPRPCGIPRP | 0.506 |
| RRIRGRPPRLPRPRPRPNNCPRP | 0.101 |
| RRIRKRPPRLPRPRPRPQQYPRP | 0.183 |

| Sequence | shrunken log2 fold change |
| --- | --- |
| RRIRKRPPRLPRPRPRPLHVPRP | 0.0446 |
| RRIRDRPPRLPRPRPRPSCRPRP | -0.0363 |
| RRIRGRPPRLPRPRPRPNAIPRP | 0.668 |
| RRIRYRPPRLPRPRPRPTNQPRP | -0.575 |
| RRIRFRPPRLPRPRPRPKQCPRP | -0.0712 |
| RRIRRRPPRLPRPRPRPNFCPRP | 0.171 |
| RRIRVRPPRLPRPRPRPFMRPRP | 0.184 |
| RRIRRRPPRLPRPRPRPGSDPRP | 0.421 |
| RRIRMRPPRLPRPRPRPYPDPRP | -0.0456 |
| RRIRVRPPRLPRPRPRPCQDPRP | -0.336 |
| RRIRSRPPRLPRPRPRPAKCPRP | 0.0862 |
| RRIRLRPPRLPRPRPRPGLMPRP | -0.0199 |
| RRIRYRPPRLPRPRPRPKNDPRP | -0.737 |
| RRIRGRPPRLPRPRPRPPTDPRP | 1.24 |
| RRIRGRPPRLPRPRPRPTKEPRP | 0.439 |
| RRIRPRPPRLPRPRPRPWTCPRP | -0.0575 |
| RRIRGRPPRLPRPRPRPEWRPRP | 1.15 |
| RRIRARPPRLPRPRPRPLWYPRP | -0.278 |
| RRIRKRPPRLPRPRPRPDNIPRP | -0.0306 |
| RRIRIRPPRLPRPRPRPVHFPRP | -0.355 |
| RRIRDRPPRLPRPRPRPKTKPRP | -0.0788 |
| RRIRHRPPRLPRPRPRPLLCPRP | -0.223 |
| RRIRFRPPRLPRPRPRPSAPPRP | -0.0675 |
| RRIRHRPPRLPRPRPRPKQFPRP | -0.108 |
| RRIRKRPPRLPRPRPRPLKWPRP | 0.18 |

| Sequence | shrunken log2 fold change |
| --- | --- |
| RRIRMRPPRLPRPRPRPVKRPRP | -0.0121 |
| RRIRLRPPRLPRPRPRPADEPRP | 0.167 |
| RRIRCRPPRLPRPRPRPKLTPRP | -0.223 |
| RRIRCRPPRLPRPRPRPAQTPRP | 0.0194 |
| RRIRPRPPRLPRPRPRPNSQPRP | -0.314 |
| RRIRYRPPRLPRPRPRPFAGPRP | 4.12 |
| RRIRYRPPRLPRPRPRPELWPRP | 0.13 |
| RRIRDRPPRLPRPRPRPSENPRP | -0.0386 |
| RRIRTRPPRLPRPRPRPKPEPRP | 0.0154 |
| RRIRVRPPRLPRPRPRPSGMPRP | 0.489 |
| RRIRHRPPRLPRPRPRPGGQPRP | 0.0463 |
| RRIRFRPPRLPRPRPRPTCPPRP | 0.174 |
| RRIRMRPPRLPRPRPRPYNQPRP | -0.486 |
| RRIRDRPPRLPRPRPRPWLYPRP | -0.68 |
| RRIRCRPPRLPRPRPRPGCQPRP | 0.00667 |
| RRIRMRPPRLPRPRPRPEFIPRP | 0.01 |
| RRIRCRPPRLPRPRPRPVEPPRP | -0.0281 |
| RRIRMRPPRLPRPRPRPLFRPRP | 1.44 |
| RRIRTRPPRLPRPRPRPADIPRP | -0.0781 |
| RRIRSRPPRLPRPRPRPCNIPRP | -0.178 |
| RRIRNRPPRLPRPRPRPPCGPRP | 0.317 |
| RRIRWRPPRLPRPRPRPELGPRP | -0.0384 |
| RRIRWRPPRLPRPRPRPEMPPRP | 0.364 |
| RRIRYRPPRLPRPRPRPLCCPRP | -0.391 |
| RRIRLRPPRLPRPRPRPCWQPRP | 0.00378 |
